Here are results for 55 sequences from the supplement of paper PMC10724198.

± gives the standard deviation of the averaged measurements.

The test system of series [1] is Saccharomyces cerevisiae. Description: protein stability index of tFT-peptide fusion (C-terminal peptide) (PSI (0-1 scale)); higher = more stable (slower turnover). Here is the method: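 MPS profiling in S. cerevisiae of the tFT-X12 degron library: putative degron peptides plus stable controls, 12 aa, fused to the C-terminus of a sfGFP-mCherry timer. Cells are FACS-sorted into 8 mCherry/sfGFP bins and deep-sequenced. PSI runs from 0 (unstable) to 1 (stable). Backgrounds are wild type, das1Δ and doa10Δ at 30 °C, and wild type, das1Δ, cdc34-1 and cdc53-1 at 37 °C; 2-3 technical replicates each.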

Series [2] concerns Saccharomyces cerevisiae. Described as above. The conditions noted are these: genetic background: wild type; temperature: 30 C.
Where [3] appears, read: genetic background: cdc34-1, temperature: 37 C.
[4] abbreviates: genetic background: cdc53-1, temperature: 37 C.
[5] abbreviates: genetic background: das1 deletion, temperature: 30 C.
Setting [6] is: genetic background: das1 deletion, temperature: 37 C.
Where [7] appears, read: genetic background: doa10 deletion, temperature: 30 C.
Setting [8] is: genetic background: wild type, temperature: 30 C.
Where [9] appears, read: genetic background: wild type, temperature: 37 C.
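Further: PSI is a weighted mean of sequencing reads over stability bins, variants kept only with over 10 reads, mCherry proximal and sfGFP distal, peptide attached via GGGS linker.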

Consider VGGREVSRAGGG, for which the protein stability index with Saccharomyces cerevisiae [1] (setting [3]) came to 0.62 ± 0.048; in the series on Saccharomyces cerevisiae [1] (setting [4]), 0.672 ± 0.0081; with Saccharomyces cerevisiae [1] (setting [5]), 0.49 ± 0.027; in the series with Saccharomyces cerevisiae [1] (setting [6]), 0.578 ± 0.06; in the series on Saccharomyces cerevisiae [1] (setting [7]), 0.477 ± 0.0076; with Saccharomyces cerevisiae [1] (setting [8]), 0.481 ± 0.011. In addition, the protein stability index in the series with Saccharomyces cerevisiae [1] (setting [9]) turned out to be 0.534 ± 0.041.

Consider VSVFWVFLLVAG, for which the protein stability index in the series on Saccharomyces cerevisiae [1] (setting [3]) was 0.223 ± 0.0059; in the series on Saccharomyces cerevisiae [1] (setting [4]) it was 0.375 ± 0.011; with Saccharomyces cerevisiae [1] (setting [5]) it was 0.245 ± 0.024; with Saccharomyces cerevisiae [1] (setting [6]), 0.4401 ± 0.0035; with Saccharomyces cerevisiae [1] (setting [7]), 0.189 ± 0.012; in the series on Saccharomyces cerevisiae [1] (setting [8]), 0.218 ± 0.024. In the series with Saccharomyces cerevisiae [1] (setting [9]), this sequence gave a protein stability index of 0.383 ± 0.016.

As to WPPPPPSLLLLC, the protein stability index with Saccharomyces cerevisiae [1] (setting [3]) turned out to be 0.4666 ± 0.0016; in the series on Saccharomyces cerevisiae [1] (setting [4]), 0.548 ± 0.022; with Saccharomyces cerevisiae [1] (setting [5]), 0.473 ± 0.016; in the series on Saccharomyces cerevisiae [1] (setting [6]), 0.611 ± 0.017; in the series with Saccharomyces cerevisiae [1] (setting [7]), 0.127 ± 0.0019; in the series with Saccharomyces cerevisiae [1] (setting [8]), 0.149 ± 0.019. Further, the protein stability index in the series with Saccharomyces cerevisiae [1] (setting [9]) is 0.177 ± 0.024.

As to YDYASTCGSCIY, the protein stability index with Saccharomyces cerevisiae [2] worked out at 0.774 ± 0.024.

For the sequence YERPIVAAVRSR, the protein stability index with Saccharomyces cerevisiae [2] stood at 0.724 ± 0.02.

In the case of YESHVLDRMDGR, the protein stability index in the series on Saccharomyces cerevisiae [2] turned out to be 0.651 ± 0.026.

Sequence YFALLMLTPPPP registered a protein stability index with Saccharomyces cerevisiae [2] of 0.636 ± 0.022.

On to YFDVFLRLAFSR, for which, in the series on Saccharomyces cerevisiae [2], the protein stability index stood at 0.655 ± 0.04.

Sequence YFFRLLYRLWSR showed a protein stability index in the series with Saccharomyces cerevisiae [2] of 0.676 ± 0.092.

Take YFLCPPTSPHRH: in the series on Saccharomyces cerevisiae [2], the protein stability index turned out to be 0.736 ± 0.13.

As to YGGAWGGVIHVC, the protein stability index with Saccharomyces cerevisiae [2] was determined as 0.657 ± 0.0081.

In the series with Saccharomyces cerevisiae [2], YGILSVRGSLSR gave a protein stability index of 0.76 ± 0.065.

As for YGLSVSSLRLWP, in the series with Saccharomyces cerevisiae [2], the protein stability index worked out at 0.6853 ± 0.0051.

YGMETVAVYTEG displayed a protein stability index in the series with Saccharomyces cerevisiae [2] of 0.666 ± 0.019.

In turn, YGPDQIGPRPGL had a protein stability index in the series with Saccharomyces cerevisiae [2] of 0.69 ± 0.041.

With YGRLPNWGASTE, the protein stability index in the series on Saccharomyces cerevisiae [2] is 0.714 ± 0.014.

In the case of YIDDGVVENVRV, in the series on Saccharomyces cerevisiae [2], the protein stability index came out at 0.681 ± 0.02.

In the series on Saccharomyces cerevisiae [2], YINFQKMRKKFD had a protein stability index of 0.723 ± 0.04.

With YINILKLVMNQD, the protein stability index with Saccharomyces cerevisiae [2] came to 0.736 ± 0.052.

As to YIYIFLVWGWYC, the protein stability index in the series on Saccharomyces cerevisiae [1] (setting [3]) came to 0.193 ± 0.056; in the series with Saccharomyces cerevisiae [1] (setting [4]), 0.314 ± 0.016; with Saccharomyces cerevisiae [1] (setting [5]), 0.214 ± 0.033; with Saccharomyces cerevisiae [1] (setting [6]), 0.4232 ± 0.0041; in the series with Saccharomyces cerevisiae [1] (setting [7]), 0.103 ± 0.013; in the series with Saccharomyces cerevisiae [1] (setting [8]), 0.132 ± 0.0065. The protein stability index in the series with Saccharomyces cerevisiae [1] (setting [9]) was 0.201 ± 0.018.

Take YKNKRSNKRKHK: in the series with Saccharomyces cerevisiae [2], the protein stability index came out at 0.702 ± 0.0098.

For the sequence YLCARGIFTLYV, the protein stability index in the series with Saccharomyces cerevisiae [2] turned out to be 0.602 ± 0.034.

As for YLGCPSHLALPL, the protein stability index in the series on Saccharomyces cerevisiae [2] was determined as 0.721 ± 0.076.

In the series with Saccharomyces cerevisiae [2], YLGTTHTGTSHR had a protein stability index of 0.701 ± 0.019.

In the series on Saccharomyces cerevisiae [2], YLGYADDLLIML returned a protein stability index of 0.707 ± 0.018.

YLPRLISAPVGP registered a protein stability index in the series with Saccharomyces cerevisiae [2] of 0.753 ± 0.076.

In the series on Saccharomyces cerevisiae [2], YLYMESTVESHL returned a protein stability index of 0.719 ± 0.025.

In the series with Saccharomyces cerevisiae [2], YMTWRGCGWSGG registered a protein stability index of 0.697 ± 0.1.

YPDNRGRGPRQP returned a protein stability index with Saccharomyces cerevisiae [2] of 0.686 ± 0.082.

In turn, YPDPLSVSPPPA registered a protein stability index in the series with Saccharomyces cerevisiae [2] of 0.682 ± 0.097.

Consider YPSLPTLCSKQP, for which the protein stability index in the series with Saccharomyces cerevisiae [2] is 0.643 ± 0.084.

In the series on Saccharomyces cerevisiae [2], YPTLHEPHSPAL gave a protein stability index of 0.738 ± 0.052.

In turn, YPTLMRNGTEKT yielded a protein stability index in the series with Saccharomyces cerevisiae [2] of 0.696 ± 0.017.

With YPYLLSPRPPPP, the protein stability index with Saccharomyces cerevisiae [2] is 0.628 ± 0.047.

In the case of YQPLWTNTITGT, the protein stability index in the series with Saccharomyces cerevisiae [2] amounted to 0.799 ± 0.17.

As to YRFSKELEQKGQ, in the series on Saccharomyces cerevisiae [2], the protein stability index turned out to be 0.68281 ± 0.0003.

On to YRLLRINFALPI, for which, in the series with Saccharomyces cerevisiae [2], the protein stability index was 0.622 ± 0.025.

Consider YSRPAPSAPPHL, for which the protein stability index with Saccharomyces cerevisiae [2] worked out at 0.698 ± 0.016.

In the series on Saccharomyces cerevisiae [2], YSRRRKILRKSY came in with a protein stability index of 0.615 ± 0.051.

Sequence YSSALLHPTSPV had a protein stability index in the series on Saccharomyces cerevisiae [2] of 0.655 ± 0.064.

The sequence YSSLLPLSSPSG registered a protein stability index with Saccharomyces cerevisiae [2] of 0.684 ± 0.04.

Consider YSVLVSLLPPSL, for which the protein stability index in the series with Saccharomyces cerevisiae [2] was 0.681 ± 0.031.

With YTAPIIGIGDDG, in the series with Saccharomyces cerevisiae [2], the protein stability index amounted to 0.659 ± 0.036.

For YTKFASLKRHTQ, in the series with Saccharomyces cerevisiae [2], the protein stability index was 0.636 ± 0.034.

With YTTLLVSTNRLS, in the series on Saccharomyces cerevisiae [2], the protein stability index amounted to 0.477 ± 0.082.

In the case of YVGLNHYCIDAL, in the series with Saccharomyces cerevisiae [2], the protein stability index stood at 0.723 ± 0.054.

YVLLSRFYLPPL gave a protein stability index with Saccharomyces cerevisiae [2] of 0.665 ± 0.02.

For YVSLAHLRWGVE, the protein stability index with Saccharomyces cerevisiae [2] came out at 0.732 ± 0.055.

Take YVVMARWSRWYV: the protein stability index in the series with Saccharomyces cerevisiae [2] came to 0.522 ± 0.015.

YVWVPCIRSVLV displayed a protein stability index in the series on Saccharomyces cerevisiae [2] of 0.491 ± 0.018.

For the sequence YWGEGGCREGGE, the protein stability index in the series with Saccharomyces cerevisiae [2] was 0.664 ± 0.056.

On to YWSAQGRVVCVL, for which the protein stability index with Saccharomyces cerevisiae [2] worked out at 0.481 ± 0.07.

For YYLAVGNRIASR, in the series with Saccharomyces cerevisiae [2], the protein stability index was determined as 0.688 ± 0.043.

YYPLRIADQNGN gave a protein stability index with Saccharomyces cerevisiae [2] of 0.795 ± 0.054.

In turn, YYRARRFRQSRR registered a protein stability index in the series on Saccharomyces cerevisiae [2] of 0.709 ± 0.077.
